Target: IGFIIR extracellular domain (domains 10-14; M6PR) (human, UniProt P11717 1510-2108)
Assay: SPR

Chain of IGFIIR extracellular domain (domains 10-14; M6PR) (P11717 1510-2108): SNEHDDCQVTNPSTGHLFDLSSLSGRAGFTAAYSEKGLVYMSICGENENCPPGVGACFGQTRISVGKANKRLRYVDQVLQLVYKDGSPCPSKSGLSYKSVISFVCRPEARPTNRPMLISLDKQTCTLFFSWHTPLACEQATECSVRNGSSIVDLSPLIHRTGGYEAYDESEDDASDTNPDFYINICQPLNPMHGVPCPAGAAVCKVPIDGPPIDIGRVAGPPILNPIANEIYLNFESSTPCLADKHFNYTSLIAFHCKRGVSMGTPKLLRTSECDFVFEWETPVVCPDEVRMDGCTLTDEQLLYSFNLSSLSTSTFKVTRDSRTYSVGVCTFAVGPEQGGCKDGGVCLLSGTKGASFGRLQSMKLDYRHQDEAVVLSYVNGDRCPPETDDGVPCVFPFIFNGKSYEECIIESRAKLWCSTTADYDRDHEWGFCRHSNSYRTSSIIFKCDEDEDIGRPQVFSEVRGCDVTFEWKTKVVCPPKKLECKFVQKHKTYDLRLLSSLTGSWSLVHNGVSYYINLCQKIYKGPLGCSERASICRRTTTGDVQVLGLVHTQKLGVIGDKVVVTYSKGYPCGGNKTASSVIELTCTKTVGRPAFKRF

Work on GGGCGCGTAGATGACGAGCAGTCCTAACATCGTTTAGGAC (structured_DNA) [DNA aptamer-20] yielded a Kd of 35.5 nM.

Binder GGGCGCGUAGAUGACGAGCAGUCCUAACAUCGUUUAGGAC (structured_RNA) [RNA aptamer-20] has a Kd of 20 nM.

Source: publication PMC5566100
